Source: patent US20240117061A1 (WUHAN YZY BIOPHARMA, published 2024)

What was measured:
[1] = target: T1, recombinant human BCMA-his fusion protein (ACRO Biosystem, Cat. No. BCA-H522y) (human, UniProt Q02223 1-54); assay: ELISA, coated antigen
T1 construct: extracellular domain; Bought protein; also called huBCMA-his; hu BCMA-his; not shown: His tag
T1 sequence (looked up): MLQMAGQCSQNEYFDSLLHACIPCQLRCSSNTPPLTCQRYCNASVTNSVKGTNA
Protocol: Procedures: huBCMA-his and cynoBCMA-his antigens were prepared into 0.5 μg/mL coating solutions with PBS (pH 7.4). The coating solutions were added to a microplate at 100 μL/well and incubated at 4° C. overnight. The residual coating solution was discarded before 3% BSA was added at 300 μL/well, and the plate was blocked for 3 h at room temperature. The microplate was washed once with PB ST at 300 The stock humanized monoclonal antibody solutions were serially 3-fold diluted to the 11th concentration. The dilutions were added to the microplate at 100 μL/well. After a 1-h incubation at room temperature, the microplate was washed thrice with PBST at 300 The HRP-conjugated 6*His, His-Tag antibody was 25,000-fold diluted with 1% BSA-PBST and added at 100 After another 1-h incubation at room temperature, the microplate was washed thrice with PB ST at 300 μL/well and dried. The TMB chromogenic solution was added at 100 μL. After a 5-min reaction at room temperature, 2 M H2504 was added at 100 μL/well to terminate the reaction. The microplate was placed on a microplate reader (Molecular Devices, SPECTRA Max plus 384) and the absorbance OD450 value was read at 450 nm wavelength.

[2] = target: T2, recombinant human BCMA-mFc fusion protein (human; mouse); assay: indirect ELISA, coated antigen
T2 construct: also called huBCMA-mFc
T2 chain: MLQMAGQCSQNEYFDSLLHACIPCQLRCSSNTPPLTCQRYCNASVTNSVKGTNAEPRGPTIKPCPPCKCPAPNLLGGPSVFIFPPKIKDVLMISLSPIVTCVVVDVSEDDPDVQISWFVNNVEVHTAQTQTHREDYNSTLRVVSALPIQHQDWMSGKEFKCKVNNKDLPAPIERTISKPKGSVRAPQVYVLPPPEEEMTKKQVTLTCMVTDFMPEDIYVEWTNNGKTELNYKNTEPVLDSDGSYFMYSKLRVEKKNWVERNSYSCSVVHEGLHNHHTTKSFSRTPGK
Protocol: Procedures: Human, mouse and monkey BCMA antigens were prepared into 0.5 μg/mL coating solutions with PBS buffer. The coating solutions were added to a microplate at 100 μL/well and incubated at 4° C. overnight. The residual coating solution was discarded before 3% BSA was added at 300 μL/well, and the plate was blocked for 3 h at room temperature. The microplate was washed once with PB ST (PBS containing 0.1% of TWEEN 20) at 300 μL/well. The human-mouse chimeric monoclonal antibodies were serially 3-fold diluted from 10 μg/mL to the 9th concentration. The dilutions were added to the microplate at 100 μL/well. After a 1-h incubation at room temperature, the microplate was washed thrice with PB ST at 300 μL/well. The mouse anti-human IgG Fc antibody [HRP] mAb was 25,000-fold diluted with 1% BSA-PBST and added at 100 μL/well. After another 1-h incubation at room temperature, the microplate was washed thrice with PBST at 300 μL/well and dried. The TMB chromogenic solution was added at 100 μL/well. After a 5-min reaction at room temperature, 2 M H₂SO₄ was added at 100 μL/well to terminate the reaction. The microplate was placed on a microplate reader (Molecular Devices, SPECTRA Max plus 384) and the absorbance OD450 value was read at 450 nm wavelength.

[3] = target: T3, human BCMA on cells (NCI-H929, U266B1, HEK293 huBCMA) (human, UniProt Q02223 1-184); assay: flow cytometry on NCI-H929 cells
T3 construct: whole, on cells; also called cell surface BCMA antigen
T3 sequence (looked up): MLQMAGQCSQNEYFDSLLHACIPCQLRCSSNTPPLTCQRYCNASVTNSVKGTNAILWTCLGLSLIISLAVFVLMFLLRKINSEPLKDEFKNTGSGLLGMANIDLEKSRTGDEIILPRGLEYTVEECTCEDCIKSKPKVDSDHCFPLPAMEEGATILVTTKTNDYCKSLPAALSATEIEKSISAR
Protocol: Procedures: The cells were resuspended in PBS, and the cell density was adjusted to 2×10^5 cells/well. Human-mouse chimeric monoclonal antibodies were added to a 96-well plate at 50 μL/well and serially 3-fold diluted from 3000 nM to the 9th concentration. The plate was incubated for 1 h at 4° C. 150 μL of precooled PBS containing 1% of FBS was added into the 96-well plate after the co-incubation with the primary antibody was finished. The mixtures were centrifuged at 300×g for 5 min and the supernatants were discarded. The above procedures were repeated once. The fluorescent secondary antibody PE anti-human IgG Fc (Biolegend, 409304) was added at 80 μL/well. The plate was incubated at 4° C. for 30 min. 150 μL of precooled PBS containing 1% of FBS was added into the 96-well plate after the co-incubation with the secondary antibody was finished. The 96-well plate was centrifuged at 300×g for 5 min and the supernatants were discarded. The above procedures were repeated once. The cells were resuspended in 100 μL of PBS containing 1% of FBS and detected on a flow cytometry (BD Accuri™ C6).

[4] = target: T1, recombinant human BCMA-his fusion …; assay: competitive ELISA, coated huBCMA-his, competitor 83A10-biotin
Protocol: The 96-well microplate was treated with 100 μL of 0.5 μg/mL huBCMA-his in PBS and incubated overnight at 4° C. The plate was then washed thrice with PBS washing buffer containing 0.1% of Tween-20 and blocked with 300 μL of PBS containing 1% of BSA for 2 h. 100 μL of each BCMA antibody was added to the plate. […] The plate was incubated at 37° C. for 1 h, and unbound secondary antibody was washed with PBS washing buffer containing 0.1% of Tween-20. The TMB chromogenic solution was added at 100 μL/well. After a 5-min reaction at room temperature, 2 M H₂SO₄ was added at 100 μL/well to terminate the reaction. The microplate was placed on a microplate reader (Molecular Devices, SPECTRA Max plus 384) and the absorbance OD450 value was read at 450 nm wavelength.

B1: human-mouse chimeric antibody c-mAb3 (antibody, human IgG1, V domains shown)
VH: EVQLQQSGPELVKPGASVKILCKASGYTITDYNMDWVKRSHGKSLEWIGNINPHNGGSIYNQKFKGKATLTVDKSSSTAFMELRSLTSEDTAVYYCARGDATLVLDYWGQGTSLTVSS
VL: DIVLTQSPASLAVSLGQRATISCRASKSVSTSGLSYMHWYQQKPGQPPKVLIYLASNLESGVPARFSGSGSGTDFTLNIHPVEEEDAATYYCQHSRELPPTFGAGTKLELK
notes: not shown: human IgG1 heavy chain constant region, GenBank No. AK303185.1; human kappa light chain constant region, GenBank No. MG815648.1
EC50 [1]: 0.0155 nM
EC50 [2]: 0.794 nM
EC50 [3]: 8.25 nM
IC50 [4]: 1 µg/mL

B2: human-mouse chimeric antibody c-mAb2 (antibody, human IgG1, V domains shown)
VH: QVQLQQSDAELVKPGTSVKISCKVSGYTFTDHTIHWMKQRPEQGLEWIGYIYPRNGNTKYNEKFKGKATLTADKSSSTAYMHLNSLTSEDSAVYFCARYDYDGYFDVWGTGTTVTVSS
VL: DVVMTQTPLSLPVSLGDQASISCRSSQSHVHSDGHTYLHWYLQKPGQSPELLIYKVSNRFSGVPDRFSGSGSGTDFTLKISRVEAEDLGVYFCSQNTHFPWTFGGGTKLEIK
notes: as for B1
EC50 [1]: 0.0257 nM
EC50 [2]: 0.427 nM
EC50 [3]: 5.7 nM
IC50 [4]: 8 µg/mL
